The text below walks through data of patent EP4484444A1.

In this assay the target is T1, recombinant human PCPE-2 (procollagen C-proteinase enhancer 2) fused to a 6 Histidine-tag at the N-terminus (human) (UniProt Q9UKZ9).
T1 sequence: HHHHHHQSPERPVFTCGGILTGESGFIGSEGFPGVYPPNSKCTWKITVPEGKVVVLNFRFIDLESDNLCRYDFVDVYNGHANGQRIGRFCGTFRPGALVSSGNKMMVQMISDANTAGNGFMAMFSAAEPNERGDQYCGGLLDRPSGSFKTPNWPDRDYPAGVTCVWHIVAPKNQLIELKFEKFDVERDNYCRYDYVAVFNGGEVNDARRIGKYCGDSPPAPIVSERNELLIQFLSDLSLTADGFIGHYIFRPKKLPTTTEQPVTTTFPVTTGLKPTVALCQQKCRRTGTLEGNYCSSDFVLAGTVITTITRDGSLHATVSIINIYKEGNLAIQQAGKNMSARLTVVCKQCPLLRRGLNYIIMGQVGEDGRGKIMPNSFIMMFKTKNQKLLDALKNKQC
Briefly: SPR competition: BMP-1 (200 nM) co-injected with PCPE-2 (200 nM) over immobilized C-propeptide III carrying PCPE-2.

B1: human BMP-1 (bone morphogenetic protein-1) fused to a C-terminal Flag tag (enzyme, UniProt P13497-2 121-730, looked up, not shown: small tags and cut ends)
chain: AATSRPERVWPDGVIPFVIGGNFTGSQRAVFRQAMRHWEKHTCVTFLERTDEDSYIVFTYRPCGCCSYVGRRGGGPQAISIGKNCDKFGIVVHELGHVVGFWHEHTRPDRDRHVSIVRENIQPGQEYNFLKMEPQEVESLGETYDFDSIMHYARNTFSRGIFLDTIVPKYEVNGVKPPIGQRTRLSKGDIAQARKLYKCPACGETLQDSTGNFSSPEYPNGYSAHMHCVWRISVTPGEKIILNFTSLDLYRSRLCWYDYVEVRDGFWRKAPLRGRFCGSKLPEPIVSTDSRLWVEFRSSSNWVGKGFFAVYEAICGGDVKKDYGHIQSPNYPDDYRPSKVCIWRIQVSEGFHVGLTFQSFEIERHDSCAYDYLEVRDGHSESSTLIGRYCGYEKPDDIKSTSSRLWLKFVSDGSINKAGFAVNFFKEVDECSRPNRGGCEQRCLNTLGSYKCSCDPGYELAPDKRRCEAACGGFLTKLNGSITSPGWPKEYPPNKNCIWQLVAPTQYRISLQFDFFETEGNDVCKYDFVEVRSGLTADSKLHGKFCGSEKPEVITSQYNNMRVEFKSDNTVSKKGFKAHFFSEKRPALQPPRGRPHQLKFRVQKRNRTPQ
As a reminder, the % inhibition is the share of the control response that was lost under treatment. With B1, the % inhibition was found to be 77%.
